Measurements reported in patent US20210155689A1 (SHANGHAI PHARMAEXPLORER, published 2021).

What was measured:
[1] = molecular target: LAG-3-hFc protein (human LAG-3 extracellular region with hFc tag) (human) (UniProt P18627); experiment: FACS, inhibition of LAG-3-hFc binding to MHC II on Raji cells, antibody 2.469 nM
[2] = molecular target: human LAG-3 on cells (HEK293-hLAG-3 stable cell line) (human) (UniProt P18627); experiment: FACS, HEK293-hLAG-3, antibody 0.000 nM
[3] = molecular target: LAG-3-hFc protein (human LAG-3 extracellular region with hFc tag) (human) (UniProt P18627); experiment: ELISA, inhibition of LSECtin-His binding to coated LAG-3-hFc, antibody 200.000 nM, replicate 2
[4] = molecular target: LAG-3-hFc protein (human LAG-3 extracellular region with hFc tag) (human) (UniProt P18627); experiment: FACS, inhibition of LAG-3-hFc binding to MHC II on Raji cells, antibody 0.000 nM
[5] = molecular target: LAG-3-hFc protein (human LAG-3 extracellular region with hFc tag) (human) (UniProt P18627); experiment: ELISA, inhibition of LSECtin-His binding to coated LAG-3-hFc, antibody 1.600 nM, replicate 1
[6] = molecular target: LAG-3-hFc protein (human LAG-3 extracellular region with hFc tag) (human) (UniProt P18627); experiment: ELISA, inhibition of LSECtin-His binding to coated LAG-3-hFc, antibody 8.000 nM, replicate 2
[7] = molecular target: monkey LAG-3 on cells (HEK293-cLAG-3 stable cell line) (monkey); experiment: FACS, HEK293-cLAG-3, antibody 0.064 nM
Sequence of monkey LAG-3 on cells (HEK293-cLAG-3 stable cell line) (monkey) (P18627 other isoform, or with tags, fused parts or gaps limits assumed): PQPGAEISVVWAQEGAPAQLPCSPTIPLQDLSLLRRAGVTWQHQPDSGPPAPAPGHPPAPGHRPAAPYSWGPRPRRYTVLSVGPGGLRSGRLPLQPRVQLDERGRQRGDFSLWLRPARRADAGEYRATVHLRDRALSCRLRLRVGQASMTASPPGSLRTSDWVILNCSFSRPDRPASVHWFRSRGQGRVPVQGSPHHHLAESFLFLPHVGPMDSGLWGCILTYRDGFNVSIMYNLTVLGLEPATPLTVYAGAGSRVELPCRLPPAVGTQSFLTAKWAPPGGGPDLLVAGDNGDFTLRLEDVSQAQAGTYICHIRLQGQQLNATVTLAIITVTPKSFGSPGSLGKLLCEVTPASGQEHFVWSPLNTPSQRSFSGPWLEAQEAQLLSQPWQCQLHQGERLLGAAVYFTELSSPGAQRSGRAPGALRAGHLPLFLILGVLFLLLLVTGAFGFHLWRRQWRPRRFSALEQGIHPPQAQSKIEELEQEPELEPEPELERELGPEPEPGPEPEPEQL

[8] = molecular target: LAG-3-hFc protein (human LAG-3 extracellular region with hFc tag) (human) (UniProt P18627); experiment: ELISA, inhibition of LSECtin-His binding to coated LAG-3-hFc, antibody 0.064 nM, replicate 2
[9] = molecular target: LAG-3-hFc protein (human LAG-3 extracellular region with hFc tag) (human) (UniProt P18627); experiment: FACS, inhibition of LAG-3-hFc binding to MHC II on Raji cells, antibody 22.222 nM
[10] = molecular target: LAG-3-hFc protein (human LAG-3 extracellular region with hFc tag) (human) (UniProt P18627); experiment: ELISA, inhibition of LSECtin-His binding to coated LAG-3-hFc, antibody 0.013 nM, replicate 2
[11] = molecular target: LAG-3-hFc protein (human LAG-3 extracellular region with hFc tag) (human) (UniProt P18627); experiment: ELISA, inhibition of LSECtin-His binding to coated LAG-3-hFc, antibody 8.000 nM, replicate 1
[12] = molecular target: T1, human LAG-3 on cells (HEK293-hLAG-3 stable cell line) (human, UniProt P18627 23-525); experiment: FACS, HEK293-hLAG-3, antibody 1.6 nM
T1 sequence: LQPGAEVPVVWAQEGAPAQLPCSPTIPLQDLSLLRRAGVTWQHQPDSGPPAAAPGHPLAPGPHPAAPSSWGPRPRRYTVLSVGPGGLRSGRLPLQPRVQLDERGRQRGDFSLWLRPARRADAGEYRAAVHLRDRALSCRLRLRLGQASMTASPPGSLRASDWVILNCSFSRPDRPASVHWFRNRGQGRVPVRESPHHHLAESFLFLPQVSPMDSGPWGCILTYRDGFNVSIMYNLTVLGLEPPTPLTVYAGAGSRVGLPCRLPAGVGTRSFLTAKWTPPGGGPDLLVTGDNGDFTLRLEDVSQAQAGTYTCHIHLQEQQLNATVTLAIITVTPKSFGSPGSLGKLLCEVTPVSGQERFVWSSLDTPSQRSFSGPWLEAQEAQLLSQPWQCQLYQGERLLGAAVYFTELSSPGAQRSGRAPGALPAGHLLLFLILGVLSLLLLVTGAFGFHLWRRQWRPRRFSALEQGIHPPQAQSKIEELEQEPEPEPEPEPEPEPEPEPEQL

[13] = molecular target: T1, human LAG-3 on cells (HEK293-hLAG-3 …); experiment: FACS, HEK293-hLAG-3, antibody 8 nM
Excerpt: A. The binding of antibodies to LAG-3 expressing cells was detected by Flow cytometry (FACS), wherein the method was according to that of Example 5.

With hIgG control (antibody) the Inhibition rate (%) [1] was 2.1%, the Mean fluorescence intensity [2] was 3 and the Inhibition rate (%) [3] was -2.2%. It also gave an Inhibition rate (%) [4] of 17.7%, an Inhibition rate (%) [5] of -21.6% and an Inhibition rate (%) [6] of -15.1%. The Mean fluorescence intensity [7] was 3.04, the Inhibition rate (%) [8] was -11.2% and the Inhibition rate (%) [9] was 19.7%. It also gave an Inhibition rate (%) [10] of -15.7% and an Inhibition rate (%) [11] of -4.3%.

B1: 556F6B8 mouse-human chimeric antibody (antibody, V domains shown)
VH: RVQLKQSGPGLVQPSQSLSITCTVSGFSLIKYGVHWVRQSPGEGLEWLGVIWRGGITDYNAAFMSRLSITKDNSKSQVFFKMNSLQADDTAIYYCAKWDGPLAMDYWGQGTSVTVSS
VL: DIVMTQSHKFLSTSVGDRVSITCKASQDVGTTVAWYQQKPGQSPKLLIYWASTRHTGVPDRFTGSGSGTDFTLTISNVQSEDLADYFCQQYSSYPYTFGGGTKLEIK
notes: also called mAb123-556F6B8; 556F8B8
B1 showed a Mean fluorescence intensity [12] of 67.

B2: 405B8H3 mouse-human chimeric antibody (antibody, V domains shown)
VH: QVQLQQSGAELVRPGASVTLSCKASGYTFTDYEMHWVKQTPVHGLEWIGATDPETGNSAYNQKFKGKAIMTADKSSSTAYMELRSLTSEDSAVYYCISTGWNDWGQGTSLTVSS
VL: DIKMTQSPSSMYASLGERVTITCKASQDINSYLSWFQQKPGKSPKTLIYRADRLLDGVPSRFSGSGSGQDYSLTISSLEYGDMGIYYCLQYDEFPYTFGGGTKLEIK
notes: also called mAb103-405B8H3
In the case of B2, the Mean fluorescence intensity [13] is reported as 226.
